Literature values in article PMC3361719.

Biological target: p67phox SH3 (Homo sapiens) (UniProt P19878)
Sequence of UniProt P19878 (P19878 457-516): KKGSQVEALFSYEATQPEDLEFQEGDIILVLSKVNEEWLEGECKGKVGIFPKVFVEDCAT

- Kd: 20 nM
Substance: p47phox PRR and 368-390 (from UniProt P14598)
